# According to PMC6374115:
# B1: cryAB (crystallin alphaB / HspB5): T170A (protein)
# parent chain: MDIAIHHPWIRRPFFPFHSPSRLFDQFFGEHLLESDLFPTSTSLSPFYLRPPSFLRAPSWFDTGLSEMRLEKDRFSVNLDVKHFSPEELKVKVLGDVIEVHGKHEERQDEHGFISREFHRKYRIPADVDPLTITSSLSSDGVLTVNGPRKQVSGPERTIPITREEKPAVTAAPKK
# Assay: live-cell confocal, cytosolic distribution
# Details: glycan lost; control: WT YFP-cryAB
protein,measurement,value
B1,localisation_or_trafficking,changes
